Molecular target: PRDM16 R998Q (Mus musculus, UniProt A2A935 SEQ:1-1275, R998Q)
Experiment: EMSA; R998Q completely loses DNA binding; same buffer as wild type
Settings: label: 32P end label

PRDM16 R998Q, sequence (A2A935 other isoform, or with tags, fused parts or gaps R998Q | R998Q R998Q): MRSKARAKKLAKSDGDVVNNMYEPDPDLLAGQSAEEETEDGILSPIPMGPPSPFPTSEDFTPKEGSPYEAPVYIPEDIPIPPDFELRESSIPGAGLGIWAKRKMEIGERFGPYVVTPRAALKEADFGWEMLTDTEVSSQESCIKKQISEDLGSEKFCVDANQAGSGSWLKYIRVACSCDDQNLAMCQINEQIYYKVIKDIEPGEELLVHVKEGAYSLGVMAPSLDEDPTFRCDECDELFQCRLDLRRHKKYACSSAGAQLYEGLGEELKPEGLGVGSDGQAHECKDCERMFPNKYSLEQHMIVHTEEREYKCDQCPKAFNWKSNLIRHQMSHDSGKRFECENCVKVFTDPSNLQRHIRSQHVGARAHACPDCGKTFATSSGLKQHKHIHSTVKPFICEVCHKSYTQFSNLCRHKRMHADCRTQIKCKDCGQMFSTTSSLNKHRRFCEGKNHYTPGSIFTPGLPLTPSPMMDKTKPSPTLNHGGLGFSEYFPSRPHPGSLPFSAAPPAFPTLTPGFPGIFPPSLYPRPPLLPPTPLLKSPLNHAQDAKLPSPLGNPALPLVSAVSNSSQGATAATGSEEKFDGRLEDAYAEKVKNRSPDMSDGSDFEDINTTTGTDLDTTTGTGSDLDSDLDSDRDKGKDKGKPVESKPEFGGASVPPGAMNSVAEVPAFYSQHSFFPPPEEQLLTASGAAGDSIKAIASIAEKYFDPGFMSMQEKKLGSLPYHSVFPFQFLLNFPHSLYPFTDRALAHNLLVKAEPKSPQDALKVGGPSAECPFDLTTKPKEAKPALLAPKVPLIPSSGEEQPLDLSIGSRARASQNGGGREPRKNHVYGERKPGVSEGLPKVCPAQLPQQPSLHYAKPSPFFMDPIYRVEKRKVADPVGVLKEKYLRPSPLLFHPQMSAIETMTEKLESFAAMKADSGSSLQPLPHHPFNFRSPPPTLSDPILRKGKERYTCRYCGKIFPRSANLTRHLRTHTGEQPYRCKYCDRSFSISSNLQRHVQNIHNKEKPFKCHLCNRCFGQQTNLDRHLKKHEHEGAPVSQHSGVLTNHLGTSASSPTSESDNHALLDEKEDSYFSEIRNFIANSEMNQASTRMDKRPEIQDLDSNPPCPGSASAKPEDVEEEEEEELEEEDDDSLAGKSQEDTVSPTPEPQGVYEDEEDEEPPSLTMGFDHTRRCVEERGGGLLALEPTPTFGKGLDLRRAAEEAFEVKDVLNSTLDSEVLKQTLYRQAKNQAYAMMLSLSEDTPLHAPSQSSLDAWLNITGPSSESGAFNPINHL

B1: PRDM16 consensus binding site EMSA probe (dsDNA)
DNA 1: GATCCGACAAGATAAGATAAGGATCTATAAGAAGATGAGGTATG
DNA 2: CATACCTCATCTTCTTATAGATCCTTATCTTATCTTGTCGGATC
B1: no binding.

— US20110059051, “Molecular Control of Brown Fat Differentiation and Engergy Expenditure” (Dana-Farber Cancer Institute, Inc., published 2011)
